Test results published in patent US9504755B2, “Multi-arm polymeric alkanoate conjugates” (Nektar Therapeutics, priority 2008, dated 2016).

Assays:
[1] = Pharmacokinetics after IV infusion in Sprague-Dawley rats; type: in vivo, rat
Method: The objective of this study was to assess the pharmacokinetics and excretion of docetaxel and 4-ARM-PEG20K-BA-docetaxel after intravenous infusion to rats.
Pharmacokinetics of 4-ARM-PEG20K-BA-docetaxel and docetaxel were evaluated in male rats (15 rats/dose level) dosed with 5, 10, and 15 mg/kg (30, 60, 90 mg/m^2) 4-ARM-PEG20K-BA-docetaxel or 5 mg/kg (30 mg/m^2) docetaxel. 4-ARM-PEG20K-BA-docetaxel and docetaxel were administered via a femoral vein catheter as 30-min intravenous infusions at 4 mL/kg. Blood samples (n=15 timepoints with n=5 samples/dose level/timepoint) were obtained by jugular venipuncture between pre-dose and 144 hours post-dose.

[2] = Pharmacokinetics after IV infusion in Beagle dogs; type: in vivo, dog
Method: The objective of the study was to assess the pharmacokinetics and excretion of docetaxel and 4-ARM-PEG20K-BA-docetaxel after intravenous infusion to dogs.
Pharmacokinetics were evaluated in male dogs (4 dogs/dose level) dosed with 0, 0.75, 2, or 4 mg/kg (0, 15, 40, and 80 mg/m^2/dose) of 4-ARM-PEG20K-BA-docetaxel or 0.75 mg/kg (15 mg/m^2) docetaxel. 4-ARM-PEG20K-BA-docetaxel and docetaxel were administered via a cephalic or saphenous vein disposable catheter as 60-min intravenous infusions at 4 mL/kg/hr. Seventeen blood samples were obtained by jugular venipuncture or Abbacoth IV catheter between 0 and 168 hr post-dose. Plasma concentrations of 4-ARM-PEG20K-BA-docetaxel and docetaxel were determined.

[3] = Population pharmacokinetic modeling of terminal disposition rate constant, rats; type: in vivo; settings: rat
From the text: To further evaluate the sustained plasma docetaxel terminal half-life, a population pharmacokinetic approach was employed.
While determining the pharmacokinetics of docetaxel after administration of docetaxel or 4-ARM-PEG20K-BA-docetaxel, it was observed that reliable values for the terminal disposition rate constant λz could not be obtained for the majority of animals secondary to fluctuation of plasma docetaxel concentrations between adjacent sampling times and/or the occurrence of incomplete concentration-time profiles due to concentrations being near or at the lower limit of quantification (1 ng/mL). In addition, in Example 14, rats were sampled in groups of 15 using alternating, overlapping sparse sampling schemes across groups to encompass the total duration of sampling. All of these factors contributed to the occurrence of sparse data within a given animal's terminal concentration-time profile.
To further investigate and compare docetaxel terminal disposition patterns between docetaxel and 4-ARM-PEG20K-BA-docetaxel, population pharmacokinetic methods were applied to data from rats (Example 14) and dogs (Example 15 and in one additional study). This allowed estimation of population λz values and corresponding half-life values for each treatment group in the presence of incomplete data within individual animals. Specifically, data from all animals within a treatment group and all treatment groups were fit with a nonlinear mixed effect pharmacokinetic model using the program Monolix. Plasma docetaxel concentrations following docetaxel or 4-ARM-PEG20K-BA-docetaxel administration, and plasma 4-ARM-PEG20K-BA-docetaxel concentrations following 4-ARM-PEG20K-BA-docetaxel administration were fit with a model specifying zero-order input of the dose over a defined infusion period and biexponential disposition (Monolix PK Model 26). Docetaxel concentration-time data after 4-ARM-PEG20K-BA-docetaxel were fit with a model having first order input, to reflect metabolism of 4-ARM-PEG20K-BA-docetaxel to the active docetaxel metabolite, and biexponential disposition (Monolix PK Model 31). The parameter of interest for this investigation was the population terminal disposition rate constant, λz to supplement the results described above.

[4] = male rats, average over 5, 10, 15 mg/kg
[5] = male rats, single IV dose 5 mg/kg
[6] = male rats, single IV dose 10 mg/kg
[7] = male rats, single IV dose 15 mg/kg
[8] = male dogs, average over 0.75, 2, 4 mg/kg
[9] = male dogs, single IV dose 0.75 mg/kg
[10] = male dogs, single IV dose 2 mg/kg
[11] = male dogs, single IV dose 4 mg/kg
[12] = docetaxel 5 mg/kg or conjugate 5, 10, 15 mg/kg

4-ARM-PEG20K-Butanoate-Linked Docetaxel Conjugate [4-ARM-PEG20K-BA-DOC]
CL, analyte conjugate, average (±SD) [1, 4]: 0.33 mL/min/kg
Vss, analyte conjugate, average (±SD) [1, 4]: 0.61 ± 0.17 L/kg
AUCinf, analyte conjugate [1, 5]: 250374 ng·h/mL
AUClast, analyte conjugate [1, 5]: 226203 ng·h/mL
AUClast, analyte docetaxel [1, 5]: 1711 ng·h/mL
CL, analyte conjugate [1, 5]: 0.33 mL/min/kg
Cmax, analyte conjugate [1, 5]: 40079 ng/mL
Cmax, analyte docetaxel [1, 5]: 122 ng/mL
T1/2, analyte conjugate [1, 5]: 73 h
Tmax, analyte conjugate [1, 5]: 0.5 h
Tmax, analyte docetaxel [1, 5]: 0.5 h
Vss, analyte conjugate [1, 5]: 0.8 L/kg
AUCinf, analyte conjugate [1, 6]: 437912 ng·h/mL
AUClast, analyte conjugate [1, 6]: 419132 ng·h/mL
AUClast, analyte docetaxel [1, 6]: 3003 ng·h/mL
CL, analyte conjugate [1, 6]: 0.38 mL/min/kg
Cmax, analyte conjugate [1, 6]: 70795 ng/mL
Cmax, analyte docetaxel [1, 6]: 176 ng/mL
T1/2, analyte conjugate [1, 6]: 59 h
Tmax, analyte conjugate [1, 6]: 0.5 h
Tmax, analyte docetaxel [1, 6]: 2.0 h
Vss, analyte conjugate [1, 6]: 0.55 L/kg
AUCinf, analyte conjugate [1, 7]: 895159 ng·h/mL
AUClast, analyte conjugate [1, 7]: 847993 ng·h/mL
AUClast, analyte docetaxel [1, 7]: 3743 ng·h/mL
CL, analyte conjugate [1, 7]: 0.28 mL/min/kg
Cmax, analyte conjugate [1, 7]: 138296 ng/mL
Cmax, analyte docetaxel [1, 7]: 273 ng/mL
T1/2, analyte conjugate [1, 7]: 63 h
Tmax, analyte conjugate [1, 7]: 0.5 h
Tmax, analyte docetaxel [1, 7]: 1.0 h
Vss, analyte conjugate [1, 7]: 0.47 L/kg
plasma docetaxel AUC compared with docetaxel ([1]; rats, equivalent doses (5 mg/kg)): similar
plasma docetaxel AUC, fold lower than after docetaxel ([2]; dogs, equivalent dose levels of 0.75 mg/kg): ~7 fold
CL, analyte conjugate, average (±SD) [2, 8]: 0.13 mL/min/kg
T1/2, analyte conjugate, average (±SD) [2, 8]: 32 ± 4 h
Vss, analyte conjugate, average (±SD) [2, 8]: 0.26 ± 0.04 L/kg
T1/2, analyte conjugate, average (±SD) ([2]; male dogs, average over 0.75, 2, 4 mg/kg, listed as 4-ARM-PEG20K-BA-docetaxel): 31 h
AUCinf, analyte conjugate [2, 9]: 104247 ng·h/mL
AUClast, analyte conjugate [2, 9]: 93084 ng·h/mL
AUClast, analyte docetaxel [2, 9]: 64 ng·h/mL
CL, analyte conjugate [2, 9]: 0.12 mL/min/kg
Cmax, analyte conjugate [2, 9]: 7084 ng/mL
Cmax, analyte docetaxel [2, 9]: 2.1 ng/mL
T1/2, analyte conjugate [2, 9]: 28 h
Tmax, analyte conjugate [2, 9]: 1.1 h
Tmax, analyte docetaxel [2, 9]: 0.88 h
Vss, analyte conjugate [2, 9]: 0.23 L/kg
AUCinf, analyte conjugate [2, 10]: 245446 ng·h/mL
AUClast, analyte conjugate [2, 10]: 232378 ng·h/mL
AUClast, analyte docetaxel [2, 10]: 153 ng·h/mL
CL, analyte conjugate [2, 10]: 0.14 mL/min/kg
Cmax, analyte conjugate [2, 10]: 17731 ng/mL
Cmax, analyte docetaxel [2, 10]: 6.3 ng/mL
T1/2, analyte conjugate [2, 10]: 35 h
Tmax, analyte conjugate [2, 10]: 1.4 h
Tmax, analyte docetaxel [2, 10]: 1.1 h
Vss, analyte conjugate [2, 10]: 0.26 L/kg
AUCinf, analyte conjugate [2, 11]: 611470 ng·h/mL
AUClast, analyte conjugate [2, 11]: 597336 ng·h/mL
AUClast, analyte docetaxel [2, 11]: 326 ng·h/mL
CL, analyte conjugate [2, 11]: 0.12 mL/min/kg
Cmax, analyte conjugate [2, 11]: 33570 ng/mL
Cmax, analyte docetaxel [2, 11]: 19 ng/mL
T1/2, analyte conjugate [2, 11]: 32 h
Tmax, analyte conjugate [2, 11]: 6.8 h
Tmax, analyte docetaxel [2, 11]: 12 h
Vss, analyte conjugate [2, 11]: 0.31 L/kg
plasma docetaxel half-life, fold longer than after docetaxel [3]: about 4 fold
Mean (SE) λz, plasma docetaxel [3, 12]: 0.00412 (0.001) hr^−1
t½λz, plasma docetaxel [3, 12]: 168 h

CC(=O)O[C@@]12CO[C@@H]1C[C@H](O)[C@@]1(C)C(=O)[C@H](O)C3=C(C)[C@@H](OC(=O)[C@H](O)[C@@H](NC(=O)OC(C)(C)C)c4ccccc4)C[C@@](O)([C@@H](OC(=O)c4ccccc4)[C@H]21)C3(C)C [Docetaxel, reference compound]
AUC(0-t) ([1]; Sprague-Dawley, rat, plasma, male rats, single IV dose 5 mg/kg, read-out: AUClast, analyte docetaxel): 1420 ng·h/mL
Cmax ([1]; Sprague-Dawley, rat, plasma, male rats, single IV dose 5 mg/kg, read-out: Cmax, analyte docetaxel): 682 ng/mL
Tmax ([1]; Sprague-Dawley, rat, plasma, male rats, single IV dose 5 mg/kg, read-out: Tmax, analyte docetaxel): 0.5 h
AUC(0-t) ([2]; Beagle, dog, plasma, male dogs, single IV dose 0.75 mg/kg, read-out: AUClast, analyte docetaxel): 479 ng·h/mL
Cmax ([2]; Beagle, dog, plasma, male dogs, single IV dose 0.75 mg/kg, read-out: Cmax, analyte docetaxel): 223 ng/mL
Tmax ([2]; Beagle, dog, plasma, male dogs, single IV dose 0.75 mg/kg, read-out: Tmax, analyte docetaxel): 0.88 h
t½λz, plasma docetaxel ([3]; in vivo): 40 h
